In paper PMC3858276:

Biological target: both RasaN and SLP-76
Assay: supernatant depletion assay (pull-down titration); biotinylated SH2 domains on streptavidin-coated DynaBeads, washed once and serially diluted in 1x PBS; ADAP at 8 nM (PBS with 0.1% E. coli extract), 10 min at RT; unbound ADAP in the supernatant read by in-gel fluorescence; Kd estimated from the plot

B1: phosphorylated SNAP-ADAP fusion protein (ADAP amino acids 570-690) (domain or fragment)
chain: DYDSLKLKKDSLGAPSRPIEDDQEVYDDVAEQDDISSHSQSGSGGIFPPPPDDDIYDGIEEEDADDGFPAPPKQLDMGDEVYDDVDTSDFPVSSAEMSQGTNVGKAKTEEKDLKKLKKQEK
modifications: phosphotyrosine (in vitro phosphorylation by Fyn kinase, approx. 90% of each phosphorylation site; sites in Table S1); BG-647 dye on the SNAP-tag
For B1, the Kd was 60 to 90 nM.
